Results reported in patent US20150147316A1 (Seagen, published 2015).

How the values were obtained:
[1] = target: T1, human CD33 (human, UniProt P20138 18-364); assay: cell-based or functional assay
[2] = target: T1, human CD33; assay: cell-based or functional assay; remark: listed apart in the source
[3] = target: T1, human CD33; assay: flow cytometry on HEL 92.1.7 AML cells

T1 sequence (P20138 18-364): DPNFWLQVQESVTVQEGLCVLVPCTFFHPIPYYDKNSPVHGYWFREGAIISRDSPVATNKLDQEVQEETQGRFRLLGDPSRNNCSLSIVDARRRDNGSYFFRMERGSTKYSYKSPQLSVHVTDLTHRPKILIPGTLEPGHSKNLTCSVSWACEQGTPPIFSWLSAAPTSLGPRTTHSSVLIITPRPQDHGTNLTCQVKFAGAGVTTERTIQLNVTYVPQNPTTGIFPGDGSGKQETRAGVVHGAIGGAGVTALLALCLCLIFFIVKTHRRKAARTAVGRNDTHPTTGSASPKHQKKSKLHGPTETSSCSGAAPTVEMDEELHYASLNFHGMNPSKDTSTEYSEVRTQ

B1: m2H12-SGD-1269 (other)
VH: QVQLQQSGPELVRPGTFVKISCKASGYTFTNYDINWVNQRPGQGLEWIGWIYPGDGSTKYNEKFKAKATLTADKSSSTAYLQLNNLTSENSAVYFCASGYEDAMDYWGQGTSVTVSS
VL: DIKMTQSPSSMYASLGERVIINCKASQDINSYLSWFQQKPGKSPKTLIYRANRLVDGVPSRFSGSGSGQDYSLTISSLEYEDMGIYYCLQYDEFPLTFGAGTKLELK
modifications: conjugated to drug-linker SGD-1269 (mcMMAF); sites and load not stated for the murine antibody
Question: For B1, which “IC50, cytotoxicity on HL-60 cells (96 h, CelltiterGlo)” value [1] is on record?
Answer: 1.3 ng/mL

B2: h2H12EC-SGD-1910 (other)
VH: QVQLVQSGAEVKKPGASVKVSCKASGYTFTNYDINWVRQAPGQGLEWIGWIYPGDGSTKYNEKFKAKATLTADTSTSTAYMELRSLRSDDTAVYYCASGYEDAMDYWGQGTTVTVSS
VL: DIQMTQSPSSLSASVGDRVTINCKASQDINSYLSWFQQKPGKAPKTLIYRANRLVDGVPSRFSGSGSGQDYTLTISSLQPEDFATYYCLQYDEFPLTFGGGTKVEIK
modifications: drug-linker SGD-1910 (pyrrolobenzodiazepine dimer) on the cysteine introduced at position 239 of the IgG1 chain, average about 2 drugs per antibody
Question: Which results are given for B2?
Answer: IC50, cytotoxicity on HEL 92.1.7 cells (96 h, CelltiterGlo) [1]: ~12.9 ng/mL; IC50, cytotoxicity on HL-60 cells (96 h, CelltiterGlo) [1]: ~1.6 ng/mL; mean IC50 over 7 of 7 AML cell lines, cytotoxicity [1]: 20.4 ng/mL; IC50 (ng/mL), cytotoxicity on HEL 92.1.7 cells [2]: 7 ng/mL; IC50 (ng/mL), cytotoxicity on HL-60 cells [2]: 1 ng/mL; IC50 (ng/mL), cytotoxicity on KG-1 cells [2]: 3 ng/mL; IC50 (ng/mL), cytotoxicity on MV4-11 cells [2]: 0.1 ng/mL; IC50 (ng/mL), cytotoxicity on TF1-α cells [2]: 49 ng/mL; IC50 (ng/mL), cytotoxicity on TF-1 cells [2]: 61 ng/mL; IC50 (ng/mL), cytotoxicity on U937 cells [2]: 22 ng/mL

B3: HAcL (antibody, V domains shown)
VH: QVQLVQSGAEVKKPGASVKVSCKASGYTFTNYDINWVRQAPGQGLEWMGWIYPGDGSTKYNEKFKARVTMTTDTSTSTAYMELRSLRSDDTAVYYCARGYEDAMDYWGQGTTVTVSS
VL: DIKMTQSPSSMYASLGERVIINCKASQDINSYLSWFQQKPGKSPKTLIYRANRLVDGVPSRFSGSGSGQDYSLTISSLEYEDMGIYYCLQYDEFPLTFGAGTKLELK
notes: Hybrid of humanized heavy chain HA and the chimeric light chain (murine VL, human constant region)
Question: Does B3 bind [3]?
Answer: no binding (tested: 0.03 nM to 600 nM (methods))

B4: h2H12-SGD-1269 (other)
VH: QVQLVQSGAEVKKPGASVKVSCKASGYTFTNYDINWVRQAPGQGLEWIGWIYPGDGSTKYNEKFKAKATLTADTSTSTAYMELRSLRSDDTAVYYCASGYEDAMDYWGQGTTVTVSS
VL: DIQMTQSPSSLSASVGDRVTINCKASQDINSYLSWFQQKPGKAPKTLIYRANRLVDGVPSRFSGSGSGQDYTLTISSLQPEDFATYYCLQYDEFPLTFGGGTKVEIK
modifications: drug-linker SGD-1269 (mcMMAF) on thiol groups of interchain disulfide cysteines, average about 4 drugs per antibody
Question: Which “IC50, cytotoxicity on HL-60 cells (96 h, CelltiterGlo)” value [1] does the source give for B4 here?
Answer: 5.3 ng/mL

Question: What about the “mean IC50 for responsive AML cell lines (4 of 7), cytotoxicity” value [1] of the same binder?
Answer: 72.8 ng/mL

Question: And the “IC50 (ng/mL), cytotoxicity on HEL 92.1.7 cells” value [2]?
Answer: > 1000 ng/mL

Question: What about the “IC50 (ng/mL), cytotoxicity on HL-60 cells” value [2] of the same binder?
Answer: 2 ng/mL

Question: What about the “IC50 (ng/mL), cytotoxicity on KG-1 cells” value [2] of the same binder?
Answer: 270 ng/mL

Question: What about the “IC50 (ng/mL), cytotoxicity on MV4-11 cells” value [2] of the same binder?
Answer: 0.1 ng/mL

Question: And the “IC50 (ng/mL), cytotoxicity on TF1-α cells” value [2]?
Answer: > 1000 ng/mL

Question: And the “IC50 (ng/mL), cytotoxicity on TF-1 cells” value [2]?
Answer: > 1000 ng/mL

Question: And the “IC50 (ng/mL), cytotoxicity on U937 cells” value [2]?
Answer: 19 ng/mL

B5: HEcL (antibody, V domains shown)
VH: QVQLVQSGAEVKKPGASVKVSCKASGYTFTNYDINWVRQAPGQGLEWIGWIYPGDGSTKYNEKFKARVTMTTDTSTSTAYMELRSLRSDDTAVYYCARGYEDAMDYWGQGTTVTVSS
VL: DIKMTQSPSSMYASLGERVIINCKASQDINSYLSWFQQKPGKSPKTLIYRANRLVDGVPSRFSGSGSGQDYSLTISSLEYEDMGIYYCLQYDEFPLTFGAGTKLELK
notes: Hybrid of humanized heavy chain HE and the chimeric light chain (murine VL, human constant region)
Question: Does B5 bind [3]?
Answer: no binding (tested: 0.03 nM to 600 nM (methods))

B6: HBcL (antibody, V domains shown)
VH: QVQLVQSGAEVKKPGASVKVSCKASGYTFTNYDINWVRQAPGQGLEWMGWIYPGDGSTKYNEKFKARVTMTADTSTSTAYMELRSLRSDDTAVYYCARGYEDAMDYWGQGTTVTVSS
VL: DIKMTQSPSSMYASLGERVIINCKASQDINSYLSWFQQKPGKSPKTLIYRANRLVDGVPSRFSGSGSGQDYSLTISSLEYEDMGIYYCLQYDEFPLTFGAGTKLELK
notes: Hybrid of humanized heavy chain HB and the chimeric light chain (murine VL, human constant region)
Question: Does B6 bind [3]?
Answer: no binding (tested: 0.03 nM to 600 nM (methods))

B7: HFcL (antibody, V domains shown)
VH: QVQLVQSGAEVKKPGASVKVSCKASGYTFTNYDINWVNQRPGQGLEWMGWIYPGDGSTKYNEKFKARVTMTTDTSTSTAYMELRSLRSDDTAVYYCARGYEDAMDYWGQGTTVTVSS
VL: DIKMTQSPSSMYASLGERVIINCKASQDINSYLSWFQQKPGKSPKTLIYRANRLVDGVPSRFSGSGSGQDYSLTISSLEYEDMGIYYCLQYDEFPLTFGAGTKLELK
notes: Hybrid of humanized heavy chain HF and the chimeric light chain (murine VL, human constant region)
Question: Does B7 bind [3]?
Answer: no binding (tested: 0.03 nM to 600 nM (methods))

B8: HDcL (antibody, V domains shown)
VH: QVQLVQSGAEVKKPGASVKVSCKASGYTFTNYDINWVRQAPGQGLEWMGWIYPGDGSTKYNEKFKARVTMTTDKSTSTAYMELRSLRSDDTAVYYCARGYEDAMDYWGQGTTVTVSS
VL: DIKMTQSPSSMYASLGERVIINCKASQDINSYLSWFQQKPGKSPKTLIYRANRLVDGVPSRFSGSGSGQDYSLTISSLEYEDMGIYYCLQYDEFPLTFGAGTKLELK
notes: Hybrid of humanized heavy chain HD and the chimeric light chain (murine VL, human constant region)
Question: Does B8 bind [3]?
Answer: no binding (tested: 0.03 nM to 600 nM (methods))

B9: HGcL (antibody, V domains shown)
VH: QVQLVQSGAEVKKPGASVKVSCKASGYTFTNYDINWVRQAPGQGLEWMGWIYPGDGSTKYNEKFKAKATLTTDTSTSTAYMELRSLRSDDTAVYYCARGYEDAMDYWGQGTTVTVSS
VL: DIKMTQSPSSMYASLGERVIINCKASQDINSYLSWFQQKPGKSPKTLIYRANRLVDGVPSRFSGSGSGQDYSLTISSLEYEDMGIYYCLQYDEFPLTFGAGTKLELK
notes: Hybrid of humanized heavy chain HG and the chimeric light chain (murine VL, human constant region)
Question: Does B9 bind [3]?
Answer: no binding (tested: 0.03 nM to 600 nM (methods))

B10: HHcL (antibody, V domains shown)
VH: QVQLVQSGAEVKKPGASVKVSCKASGYTFTNYDINWVRQAPGQGLEWMGWIYPGDGSTKYNEKFKARVTMTTDTSTSTAYMELSSLTSDDTAVYYCARGYEDAMDYWGQGTTVTVSS
VL: DIKMTQSPSSMYASLGERVIINCKASQDINSYLSWFQQKPGKSPKTLIYRANRLVDGVPSRFSGSGSGQDYSLTISSLEYEDMGIYYCLQYDEFPLTFGAGTKLELK
notes: Hybrid of humanized heavy chain HH and the chimeric light chain (murine VL, human constant region)
Question: Does B10 bind [3]?
Answer: no binding (tested: 0.03 nM to 600 nM (methods))
